These results are taken from publication PMC8223476 (2021).

For the assay, the target named is Biotinylated SARS-CoV-2 (COVID-19) S protein RBD, His, Avitag (bRBD) (SARS-CoV-2, UniProt P0DTC2, biotinylated). The assay can be described thus: flow cytometry on cells. In general terms: A flow cytometer gives signals particle by particle.

B1: C119 (IgG) (antibody, V domains shown)
VH: QVQLVQSGAEVKKPGASVKVSCKASGYTFTSYYMHWVRQAPGQGLEWMGIINPSGGSTSYAQKLQGRVTMTRDTSTSTVYMELSSLRSEDTAVYYCARANHETTMDTYYYYYYMDVWGKGTTVTVSS
VL: QSALTQPASVSGSPGQSITISCTGTSSDVGGYKYVSWYQRHPGKAPKLMIYDVSNRPSGVSNRFSGSKSGNTASLTISGLQAEDEADYYCSSYTSSSTSVVFGGGTQLTVL
Regarding B1, the binding result was “binds”.
